The target in the test is clathrin (triskelia purified from pig brain clathrin-coated vesicles) (pig). The experiment in a line: cryo-EM structure; clathrin cages assembled with a 60-fold molar excess of β2HA; single particle analysis of minicoat cages, signal subtraction, masked 3D classification and localized reconstruction; compared with clathrin-only minicoat cages.

Regarding “β2-adaptin 616-951, hinge and appendage of the human β2 subunit of the AP2 complex (β2HA) (from UniProt P63010-2 616-951) (domain or fragment)”, the stoichiometry N (β2HA per terminal domain) was found to be 0.5.
